Experimental data: patent US20250171549A1 (Amgen, published 2025)
Where no end group is shown, it is not given here.

T1: human CCR4 (human, UniProt P51679 1-360)
T1 construct: Transiently expressed on HEK293T; also called hCCR4
T1 sequence: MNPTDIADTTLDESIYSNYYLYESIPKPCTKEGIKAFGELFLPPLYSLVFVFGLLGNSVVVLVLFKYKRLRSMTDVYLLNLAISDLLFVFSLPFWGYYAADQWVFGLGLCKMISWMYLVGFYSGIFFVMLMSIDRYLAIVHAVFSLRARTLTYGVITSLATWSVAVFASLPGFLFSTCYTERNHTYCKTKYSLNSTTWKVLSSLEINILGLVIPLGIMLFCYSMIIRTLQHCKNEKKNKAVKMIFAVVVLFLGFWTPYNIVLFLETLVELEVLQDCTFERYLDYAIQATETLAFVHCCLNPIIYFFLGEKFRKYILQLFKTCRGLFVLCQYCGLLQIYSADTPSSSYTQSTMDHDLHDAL

T2: Peptide 3 (biotinylated N-terminus CCR8 peptide, amino acids 13-24) (human, also: biotinylated, position not given here)
T2 construct: Captured on streptavidin polystyrene beads
T2 peptide: TDYYYPDIFSSP

T3: Peptide 4 (biotinylated N-terminus CCR8 peptide, amino acids 19-30) (human, also: biotinylated, position not given here)
T3 construct: Captured on streptavidin polystyrene beads
T3 peptide: DIFSSPCDAELI

T4: Peptide 2 (biotinylated N-terminus CCR8 peptide, amino acids 7-18) (human, also: biotinylated, position not given here)
T4 construct: Captured on streptavidin polystyrene beads
T4 peptide: LSVTTVTDYYYP

T5: Peptide 5 (biotinylated N-terminus CCR8 peptide, amino acids 25-35) (human, also: biotinylated, position not given here)
T5 construct: Captured on streptavidin polystyrene beads
T5 peptide: CDAELIQTNGK

T6: Peptide 1 (biotinylated N-terminus CCR8 peptide, amino acids 1-12) (human, also: biotinylated, position not given here)
T6 construct: Captured on streptavidin polystyrene beads
T6 peptide: MDYTLDLSVTTV


Tests used:
human CCR4 = target: T1, human CCR4; assay: flow cytometry, HEK293T transfectants
Description: Transfected cells were used to assess an antibody's binding specificity using flow cytometry on host Human Embryonic Kidney (HEK) 293T cells. Proteins were expressed on HEK 293T cells by transfection using human CCR8 (SEQ ID NO: 21), human CCR8 with an A27G point mutation (SEQ ID NO: 23), murine CCR8 (SEQ ID NO: 24), rat CCR8 (SEQ ID NO: 25), human CCR4 (SEQ ID NO: 26), or control expression vectors, Gibco™ Opti-MEM® media (Gibco), and 293Fectin™ reagent (Invitrogen) according to the manufacturer's instructions. Human T-cell lymphoma (HuT78) cell lines were also used to determine specificity to endogenously expressed CCR8.
Transfected HEK293T cells (24 hours after transfection) or HuT78 cells were resuspended in FACS buffer (PBS+2% Fetal Bovine Serum) and added to a 96-well plate. […]
Alexa Fluor 647 goat anti-human or rat IgG (Fcγ fragment specific) secondary antibodies (Jackson ImmunoResearch) made up in FACS buffer at 5.0 μg/mL were added to each well, and cells were resuspended and incubated for 15 minutes at 4° C. […] Samples were resuspended in FACS buffer and read on either IntelliCyt® iQue or BD Accuri™ Flow Cytometer with an Intellicyt HyperCyt autosampler.

[1] = target: T2, Peptide 3 (biotinylated N-terminus CCR8 …); assay: flow cytometry, biotinylated peptide on streptavidin beads, antibody 5 ug/mL
Protocol: (§1) The biotinylated human CCR8 peptides were captured on streptavidin polystyrene beads (Spherotech) in FACS buffer (PBS+2% Fetal Bovine Serum) at a final protein concentration of 50-100 ng/ml and incubated for 30 minutes at room temperature. Beads were washed twice with FACS buffer to remove unbound protein, centrifuged to pellet the beads, and resuspended and pooled together in StabilGuard (SurModics). The pooled biotinylated human CCR8 coated beads were added to hybridoma supernatant samples in a 96-well plate, such that the final antibody concentration was 5.0 μg/mL, and then incubated for one hour at room temperature.
(§2) Plates were washed twice with FACS buffer, centrifuged to pellet the beads, and supernatant was removed and resuspended in FACS buffer to remove unbound antibodies. Alexa Fluor 488 goat anti-human or rat IgG (Fcγ fragment specific) secondary antibodies (Jackson ImmunoResearch) made up in FACS buffer at 5.0 μg/mL were added to each well, resuspended with beads and incubated for 15 minutes at room temperature. Plates were washed twice with FACS buffer, centrifuged to pellet the beads, and supernatant was removed and resuspended in FACS buffer to remove unbound secondary antibodies. Samples were then resuspended in FACS buffer and read on either IntelliCyt® iQue Flow Cytometer. […]

[2] = target: T3, Peptide 4 (biotinylated N-terminus CCR8 …); assay: flow cytometry, biotinylated peptide on streptavidin beads
Protocol: as §1
(§3) Plates were washed twice with FACS buffer, centrifuged to pellet the beads, and supernatant was removed and resuspended in FACS buffer to remove unbound antibodies. Alexa Fluor 488 goat anti-human or rat IgG (Fcγ fragment specific) secondary antibodies (Jackson ImmunoResearch) made up in FACS buffer at 5.0 μg/mL were added to each well, resuspended with beads and incubated for 15 minutes at room temperature. Plates were washed twice with FACS buffer, centrifuged to pellet the beads, and supernatant was removed and resuspended in FACS buffer to remove unbound secondary antibodies. Samples were then resuspended in FACS buffer and read on either IntelliCyt® iQue Flow Cytometer.
(§4) Data are represented as a ratio of geometric mean binding to beads coated with specific peptide divided by geometric mean of binding to a bead coated with a negative control peptide (peptide with unrelated sequence). A value above two represents presence of binding.

[3] = target: T4, Peptide 2 (biotinylated N-terminus CCR8 …); assay: as above
Protocol: as §1, §3, §4

[4] = target: T5, Peptide 5 (biotinylated N-terminus CCR8 …); assay: as above
Protocol: as §1, §3, §4

[5] = target: T7, cynomolgus monkey CCR8 (comprising threonine at position four) (cynomolgus monkey, UniProt O97665 1-356 (rhesus entry)); assay: KinExA, 293T cells expressing cynomolgus CCR8
T7 construct: also called Cyno CCR8; cynomolgus CCR8
T7 sequence (O97665 other isoform, or with tags, fused parts or gaps): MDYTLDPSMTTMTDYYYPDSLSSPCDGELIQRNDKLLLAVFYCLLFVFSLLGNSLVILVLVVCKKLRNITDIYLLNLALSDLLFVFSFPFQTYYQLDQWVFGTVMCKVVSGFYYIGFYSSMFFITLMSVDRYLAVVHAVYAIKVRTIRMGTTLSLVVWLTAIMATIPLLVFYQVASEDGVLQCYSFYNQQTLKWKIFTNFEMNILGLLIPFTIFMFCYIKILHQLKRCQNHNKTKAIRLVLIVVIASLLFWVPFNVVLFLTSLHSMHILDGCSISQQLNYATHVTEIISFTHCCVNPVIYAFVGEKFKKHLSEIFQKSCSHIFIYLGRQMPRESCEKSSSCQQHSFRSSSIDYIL
Protocol: For each equilibrium set, reference point controls included a sample with cell media only and a sample without cells. The equilibrium sets were incubated for 24 hours at room temperature, with shaking. After 24 hours of incubation, the supernatants were separated from the cell pellets via centrifugation at 500×g for five minutes. The supernatants of both high [Ab] and low [Ab] equilibrium sets were then run through a KinExA 3200 machine.
Each equilibrium sample set was read in duplicate on the KinExA machine. For low [Ab] equilibrium samples, 6.8 mL and 4.6 mL of each sample were run in duplicate, respectively, for human and cyno CCR8 equilibrium experiments. For high [Ab] equilibrium samples 16 μL and 75 μL of each sample were run in duplicate, respectively for human and cyno CCR8 equilibrium experiments.
For each equilibrium sample the free [Ab] was detected by running the equilibrium samples through the coated beads followed by a quick wash with the running buffer (1×PBS pH7.4+1% BSA+0.05% Sodium Azide). The secondary detection antibody (goat anti-huIgG (H+L) Alexa 647) was run through the flow cell at 680 ng/ml and 500 μL per run. The KinExA voltage output signal was used in KinExA software to calculate the Kd. […]

[6] = target: T6, Peptide 1 (biotinylated N-terminus CCR8 …); assay: flow cytometry, biotinylated peptide on streptavidin beads, antibody 5 ug/mL
Protocol: as §1, §2

[7] = target: T2, Peptide 3 (biotinylated N-terminus CCR8 …); assay: flow cytometry, biotinylated peptide on streptavidin beads
Protocol: as §1, §3, §4

Row | Binder | binding result (human CCR4) | ratio of geometric mean, peptide bead / negative control peptide bead [1] | binding result [2] | binding result [3] | binding result [4] | Kd [5] | ratio of geometric mean, peptide bead / negative control peptide bead [6] | binding result [7]
1 | Antibody 2 IgG2 (antibody, V domains shown, IgG2; tested as hybridoma supernatant) VH: QVQLVESGGGVVQPGRSLRLSCAASGFTFSNYGMHWVRQAPGKGLEWVAVISYDGSNKFYADSVKGRFTISRDNSKKTLYLQMSSLRVEDTAVYYCARAGGIGRFDYWGQGTLVTVSS VL: DFVMTQTPLSLSVTPGQPASISCKYSQSLLHSDGKTYLFWYLQKPGQPPHLLIYEVSNRFSGVPDRFSGSGSGTDFTLKISRVEAEDVGLYYCMQTLKLPLTFGGGTKVEINR | no binding (tested: 5.0 ug/mL) | 157 | no binding | no binding | no binding | – | – | –
2 | Antibody 1 IgG2 (antibody, IgG2; tested as hybridoma supernatant) heavy: EVQLVESGGGLVKPGGSLRLSCAASGFTFSNARMGWVRQAPGKGLEWVGRIKSKTEGGTRDYAAPVKGRFTISRDDSKNTLYLQMNSLKTEDTAVYYCTSYSGVWGQGTMVTVSSASTKGPSVFPLAPCSRSTSESTAALGCLVKDYFPEPVTVSWNSGALTSGVHTFPAVLQSSGLYSLSSVVTVPSSNFGTQTYTCNVDHKPSNTKVDKTVERKCCVECPPCPAPPVAGPSVFLFPPKPKDTLMISRTPEVTCVVVDVSHEDPEVQFNWYVDGVEVHNAKTKPREEQFNSTFRVVSVLTVVHQDWLNGKEYKCKVSNKGLPAPIEKTISKTKGQPREPQVYTLPPSREEMTKNQVSLTCLVKGFYPSDIAVEWESNGQPENNYKTTPPMLDSDGSFFLYSKLTVDKSRWQQGNVFSCSVMHEALHNHYTQKSLSLSPGK light: not shown | no binding (tested: 5.0 ug/mL) | – | no binding | no binding | no binding | 0.229 nM | 3 | no binding
